First the molecules themselves.
B1: STK38L (parent)
chain: FLPGGDMMTLLMKKDTLTEEETQF
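Note: lentivirally expressed fusions sorted by FACS into six bins by GFP to DsRed ratio, PSI derived from sequencing read proportions per bin multiplied by bin number.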

The variants in this series derive from B1. In words: protein stability index of a GFP-peptide fusion (GPS, HEK-293T) (PSI 1-6); higher = more stable. Particulars: c terminus: a fixed tail appended.
With FLPGGDMMTLLMKKDTLTEEEIQF [T22I], the protein stability index came out at 2.35.

As for FLPGGDMMTLLMKKDTLTEEEFQF [T22F], the protein stability index is 2.25.

With FLPGGDMMTLLMKKDTLTEEEGQF [T22G], the protein stability index amounted to 2.08.

Take FLPGGDMMTLLMKKDTLTEEELQF [T22L]: the protein stability index worked out at 2.12.

On to FLPGGDMMTLLMKKDTLTEEEKQF [T22K], for which the protein stability index came to 2.18.

Consider FLPGGDMMTLLMKKDTLTEEEHQF [T22H], for which the protein stability index came to 2.06.

On to FLPGGDMMTLLMKKDTLTEEECQF [T22C], for which the protein stability index was found to be 2.05.

FLPGGDMMTLLMKKDTLTEEEAQF [T22A]: the protein stability index worked out at 2.53.

For FLPGGDMMTLLMKKDTLTEEEDQF [T22D], the protein stability index turned out to be 2.12.

On to FLPGGDMMTLLMKKDTLTEEEEQF [T22E], for which the protein stability index came out at 3.21.

On to FLPGGDMMTLLMKKDTLTEEFTQF [E21F], for which the protein stability index amounted to 1.2.

For the variant FLPGGDMMTLLMKKDTLTEEQTQF [E21Q], the protein stability index is 2.04.

Regarding FLPGGDMMTLLMKKDTLTEEKTQF [E21K], the protein stability index was found to be 2.16.

In the case of FLPGGDMMTLLMKKDTLTEELTQF [E21L], the protein stability index amounted to 1.56.

Turning to FLPGGDMMTLLMKKDTLTEENTQF [E21N], the protein stability index was 1.84.

As for FLPGGDMMTLLMKKDTLTEECTQF [E21C], the protein stability index is 2.01.

Regarding FLPGGDMMTLLMKKDTLTEEPTQF [E21P], the protein stability index came to 1.65.

For FLPGGDMMTLLMKKDTLTEEYTQF [E21Y], the protein stability index stood at 1.88.

As for FLPGGDMMTLLMKKDTLTEESTQF [E21S], the protein stability index is 2.19.

For the variant FLPGGDMMTLLMKKDTLTEEHTQF [E21H], the protein stability index came out at 1.81.

Consider FLPGGDMMTLLMKKDTLTEEATQF [E21A], for which the protein stability index was found to be 1.94.

Take FLPGGDMMTLLMKKDTLTEETTQF [E21T]: the protein stability index was determined as 1.74.

For FLPGGDMMTLLMKKDTLTEEWTQF [E21W], the protein stability index worked out at 2.14.

On to FLPGGDMMTLLMKKDTLTEEMTQF [E21M], for which the protein stability index is 1.98.

Regarding FLPGGDMMTLLMKKDTLTEEDTQF [E21D], the protein stability index was determined as 2.07.

With FLPGGDMMTLLMKKDTLTEEVTQF [E21V], the protein stability index came out at 1.71.

On to FLPGGDMMTLLMKKDTLTEERTQF [E21R], for which the protein stability index amounted to 2.21.

Take FLPGGDMMTLLMKKDTLTEEGTQF [E21G]: the protein stability index stood at 2.89.

For the variant FLPGGDMMTLLMKKDTLTEEITQF [E21I], the protein stability index came to 2.

Take FLPGGDMMTLLMKKDTLTELETQF [E20L]: the protein stability index came to 1.13.

With FLPGGDMMTLLMKKDTLTEWETQF [E20W], the protein stability index amounted to 1.66.

Turning to FLPGGDMMTLLMKKDTLTEGETQF [E20G], the protein stability index was found to be 1.6.

As for FLPGGDMMTLLMKKDTLTEKETQF [E20K], the protein stability index was determined as 1.75.

With FLPGGDMMTLLMKKDTLTEMETQF [E20M], the protein stability index stood at 1.89.

For the variant FLPGGDMMTLLMKKDTLTEDETQF [E20D], the protein stability index stood at 2.45.

Turning to FLPGGDMMTLLMKKDTLTEYETQF [E20Y], the protein stability index stood at 2.08.

As for FLPGGDMMTLLMKKDTLTEAETQF [E20A], the protein stability index came out at 1.86.

For the variant FLPGGDMMTLLMKKDTLTENETQF [E20N], the protein stability index worked out at 2.5.

For FLPGGDMMTLLMKKDTLTEVETQF [E20V], the protein stability index came to 1.79.

Consider FLPGGDMMTLLMKKDTLTEFETQF [E20F], for which the protein stability index came out at 1.97.

Consider FLPGGDMMTLLMKKDTLTEQETQF [E20Q], for which the protein stability index was found to be 1.76.

Turning to FLPGGDMMTLLMKKDTLTESETQF [E20S], the protein stability index is 1.68.

Consider FLPGGDMMTLLMKKDTLTEIETQF [E20I], for which the protein stability index came to 1.4.

Regarding FLPGGDMMTLLMKKDTLTEPETQF [E20P], the protein stability index came to 1.82.

Regarding FLPGGDMMTLLMKKDTLTETETQF [E20T], the protein stability index came to 1.86.

On to FLPGGDMMTLLMKKDTLTEHETQF [E20H], for which the protein stability index turned out to be 1.97.

On to FLPGGDMMTLLMKKDTLTERETQF [E20R], for which the protein stability index came to 1.95.

Take FLPGGDMMTLLMKKDTLTECETQF [E20C]: the protein stability index worked out at 2.27.

With FLPGGDMMTLLMKKDTQTEEETQF [L17Q], the protein stability index is 1.98.

FLPGGDMMTLLMKKDTPTEEETQF [L17P]: the protein stability index worked out at 2.46.

As for FLPGGDMMTLLMKKDTSTEEETQF [L17S], the protein stability index came to 2.59.

For FLPGGDMMTLLMKKDTTTEEETQF [L17T], the protein stability index was found to be 2.63.

FLPGGDMMTLLMKKDTWTEEETQF [L17W]: the protein stability index was 1.75.

For FLPGGDMMTLLMKKDTNTEEETQF [L17N], the protein stability index worked out at 2.78.

In the case of FLPGGDMMTLLMKKDTRTEEETQF [L17R], the protein stability index was 2.39.

Take FLPGGDMMTLLMKKDTVTEEETQF [L17V]: the protein stability index is 1.94.

FLPGGDMMTLLMKKDTYTEEETQF [L17Y]: the protein stability index worked out at 2.

Consider FLPGGDMMTLLMKKDTLTNEETQF [E19N], for which the protein stability index was found to be 1.72.

As to FLPGGDMMTLLMKKDTLTSEETQF [E19S], the protein stability index turned out to be 2.61.

For the variant FLPGGDMMTLLMKKDTLTREETQF [E19R], the protein stability index turned out to be 1.78.

For FLPGGDMMTLLMKKDTLTLEETQF [E19L], the protein stability index came out at 1.62.

For FLPGGDMMTLLMKKDTLTKEETQF [E19K], the protein stability index worked out at 1.97.

For FLPGGDMMTLLMKKDTLTDEETQF [E19D], the protein stability index was found to be 2.42.

Turning to FLPGGDMMTLLMKKDTLTWEETQF [E19W], the protein stability index was 2.14.

Take FLPGGDMMTLLMKKDTLTPEETQF [E19P]: the protein stability index was 2.11.

FLPGGDMMTLLMKKDTLTCEETQF [E19C]: the protein stability index amounted to 1.73.

Consider FLPGGDMMTLLMKKDTLTFEETQF [E19F], for which the protein stability index amounted to 1.87.

With FLPGGDMMTLLMKKDTLTMEETQF [E19M], the protein stability index came out at 1.66.

Take FLPGGDMMTLLMKKDTLTHEETQF [E19H]: the protein stability index is 2.01.

For FLPGGDMMTLLMKKDTLTAEETQF [E19A], the protein stability index is 2.13.

For FLPGGDMMTLLMKKDTLTYEETQF [E19Y], the protein stability index is 1.9.

Take FLPGGDMMTLLMKKDTLTQEETQF [E19Q]: the protein stability index amounted to 2.12.

On to FLPGGDMMTLLMKKDTLTIEETQF [E19I], for which the protein stability index came to 2.02.

With FLPGGDMMTLLMKKDTLTTEETQF [E19T], the protein stability index worked out at 1.51.

FLPGGDMMTLLMKKDTLTGEETQF [E19G]: the protein stability index worked out at 2.35.

As to FLPGGDMMTLLMKKDTLEEEETQF [T18E], the protein stability index turned out to be 2.36.

In the case of FLPGGDMMTLLMKKDTLMEEETQF [T18M], the protein stability index worked out at 1.7.

Turning to FLPGGDMMTLLMKKDTLVEEETQF [T18V], the protein stability index came to 2.49.

Take FLPGGDMMTLLMKKDTLQEEETQF [T18Q]: the protein stability index stood at 2.34.

As for FLPGGDMMTLLMKKDTLIEEETQF [T18I], the protein stability index stood at 1.58.

As for FLPGGDMMTLLMKKDTLHEEETQF [T18H], the protein stability index stood at 2.05.

Take FLPGGDMMTLLMKKDTLREEETQF [T18R]: the protein stability index worked out at 1.84.

For FLPGGDMMTLLMKKDTLPEEETQF [T18P], the protein stability index is 2.68.

For the variant FLPGGDMMTLLMKKDTLDEEETQF [T18D], the protein stability index was determined as 2.29.

For the variant FLPGGDMMTLLMKKDTLAEEETQF [T18A], the protein stability index came to 2.1.

Consider FLPGGDMMTLLMKKDTLSEEETQF [T18S], for which the protein stability index came out at 2.83.

For FLPGGDMMTLLMKKDTLNEEETQF [T18N], the protein stability index came to 2.24.

Regarding FLPGGDMMTLLMKKDTLWEEETQF [T18W], the protein stability index amounted to 2.17.

In the case of FLPGGDMMTLLMKKDTLLEEETQF [T18L], the protein stability index came to 2.15.

As to FLPGGDMMTLLMKKDTLCEEETQF [T18C], the protein stability index was 1.57.

In the case of FLPGGDMMTLLMKKDTLFEEETQF [T18F], the protein stability index was 1.73.

As to FLPGGDMMTLLMKKDTLYEEETQF [T18Y], the protein stability index was found to be 2.18.

For FLPGGDMMTLLMKKDTLKEEETQF [T18K], the protein stability index turned out to be 2.

For FLPGGDMMTLLMKKDTLGEEETQF [T18G], the protein stability index was determined as 2.01.

These data come from the supplement of paper PMC10567573.
